Experimental data as given in paper PMC3226628, “The Golgi Localization of GOLPH2 (GP73/GOLM1) Is Determined by the Transmembrane and Cytoplamic Sequences” (PLoS ONE, 2011).
Residue numbers refer to the chain shown, from its start. Names may count otherwise.

B1: GOLPH2-Δ(1–55) (domain or fragment, human, UniProt Q8NBJ4 56-401, looked up)
chain: AAAERGAVELKKNEFQGELEKQREQLDKIQSSHNFQLESVNKLYQDEKAVLVNNITTGERLIRVLQDQLKTLQRNYGRLQQDVLQFQKNQTNLERKFSYDLSQCINQMKEVKEQCEERIEEVTKKGNEAVASRDLSENNDQRQQLQALSEPQPRLQAAGLPHTEVPQGKGNVLGNSKSQTPAPSSEVVLDSKRQVEKEETNEIQVVNEEPQRDRLPQEPGREQVVEDRPVGGRGFGGAGELGQTPQVQAALSVSQENPEMEGPERDQLVIPDGQEEEQEAAGEGRNQQKLRGEDDYNMDENEAESETDKQAALAGNDRNIDVFNVEDQKRDTINLLDQREKRNHTL
notes: Golgi phosphoprotein 2 (GOLPH2, GP73, GOLM1), human, residues 1-55 deleted; C-terminal luminal region, amino acids 56-401; also called purified wild-type GOLPH2; GOLPH2-Δ(1–55) fusion protein; source: E. coli BL21 (DE3), pET22b(+), purified (Ni-NTA)
B2: GOLPH2-Δ(1–55) C170A (domain or fragment, human, UniProt Q8NBJ4 56-401, looked up)
chain: B1 chain with C115A
notes: GOLPH2 (GP73, GOLM1), human, residues 1-55 deleted (amino acids 56-401), C170A; also called single mutant C170A; source: E. coli BL21 (DE3), pET22b(+), purified (Ni-NTA)
B3: GOLPH2-Δ(1–55) C159A-C170A (domain or fragment, human, UniProt Q8NBJ4 56-401, looked up)
chain: B1 chain with C104A, C115A
notes: GOLPH2 (GP73, GOLM1), human, residues 1-55 deleted (amino acids 56-401), C159A and C170A; Monomer on non-reducing SDS-PAGE, same migration as the wild type on native-PAGE; also called double mutant C159A–C170A; source: E. coli BL21 (DE3), pET22b(+), purified (Ni-NTA)
B4: GOLPH2-Δ(1–55) C159A (domain or fragment, human, UniProt Q8NBJ4 56-401, looked up)
chain: B1 chain with C104A
notes: GOLPH2 (GP73, GOLM1), human, residues 1-55 deleted (amino acids 56-401), C159A; also called single mutant C159A; source: E. coli BL21 (DE3), pET22b(+), purified (Ni-NTA)
B5: GOLPH2-FLAG (wild-type, full length) (natural protein, human, UniProt Q8NBJ4 1-401, looked up)
chain: MMGLGNGRRSMKSPPLVLAALVACIIVLGFNYWIASSRSVDLQTRIMELEGRVRRAAAERGAVELKKNEFQGELEKQREQLDKIQSSHNFQLESVNKLYQDEKAVLVNNITTGERLIRVLQDQLKTLQRNYGRLQQDVLQFQKNQTNLERKFSYDLSQCINQMKEVKEQCEERIEEVTKKGNEAVASRDLSENNDQRQQLQALSEPQPRLQAAGLPHTEVPQGKGNVLGNSKSQTPAPSSEVVLDSKRQVEKEETNEIQVVNEEPQRDRLPQEPGREQVVEDRPVGGRGFGGAGELGQTPQVQAALSVSQENPEMEGPERDQLVIPDGQEEEQEAAGEGRNQQKLRGEDDYNMDENEAESETDKQAALAGNDRNIDVFNVEDQKRDTINLLDQREKRNHTL
notes: Golgi phosphoprotein 2 (GOLPH2, GP73, GOLM1), human, full-length cDNA from Huh7 cells; also called pCR3.1-GOLPH2-FLAG; wild-type GOLPH2; source: HeLa, transfected, in lysate; not shown: FLAG, C-terminal, kept

Key:
[1] = biological target: the molecule itself; test: SDS-PAGE under non-reducing and reducing conditions; purified GOLPH2-Δ(1–55) and cysteine mutants boiled with 0 to 100 mM 2-mercaptoethanol, 10% SDS-PAGE; shows disulfide-linked oligomers
[2] = biological target: the molecule itself; test: native gel or EMSA; native-PAGE of purified GOLPH2-Δ(1–55) and cysteine mutants, loaded directly or boiled with 2% SDS and 140 mM 2-mercaptoethanol; BSA monomer, dimer and tetramer as markers
[3] = biological target: the molecule itself; test: SDS-PAGE under non-reducing conditions with immunoblot; lysates of HeLa cells 36 h after transfection with pCR3.1-GOLPH2-FLAG or mutants; immunoblot with FLAG antibody

Protein	binding result [1]	binding result [2]	also measured
B1	binds		
B2	binds		
B3		binds	
B4		binds	
B5			stoichiometry N [3]: 2
